From patent US20190092858A1

Biological target: plasma proteins (fresh human plasma)
Test: size exclusion chromatography (Sephadex G-50 spin columns) with gamma counting, after incubation in fresh human plasma at 37 C for up to 4 h

With “99mTc-HYNIC-P8RI (obtained with tricine/EDDA as coligands) (peptide)” the protein binding (% bound to plasma proteins) was less than 5%.
